Experimental data as given in the supplement of paper PMC7125110.
± gives the standard error. Variants at the floor of the assay were thinned out.

B1: glmS ribozyme (parent)
chain: AUAAAAGCGCCAGAACUACAGAAAUGUAGUUGACGAGGAGGAGGUUUAUCGAAUUUUCGGCGGAUGCCUCCAAA

Tests used:
Conditions in all cases: with glucosamine-6-phosphate
glucosamine-6-phosphate [1] = variants of: B1; assay: self-cleavage kobs at 40 uM GlcN6P; higher = faster cleavage; RNA array
Summary of the method: (§1)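 The measurements used barcoded ribozyme variants on sequenced MiSeq chips, transcribed in situ by E. coli RNA polymerase and tracked at 37 °C with a hybridised Cy3 probe. Glucosamine-6-phosphate, 40 μM to 10 mM in HEPES/KCl/Mg(OAc)2 buffer, was flowed in while tiles were imaged over ~14 h. Baseline-normalised signals, also normalised to non-cleaving reference variants, gave per-tile medians that were fit to one- or two-exponential decays for kobs. kcat and KM resulted from weighted Michaelis–Menten fits across concentrations.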

glucosamine-6-phosphate [2] = variants of: B1; assay: self-cleavage kobs at 640 uM GlcN6P; higher = faster cleavage; RNA array
Summary of the method: as §1

glucosamine-6-phosphate [3] = variants of: B1; assay: self-cleavage kobs at 10000 uM GlcN6P; higher = faster cleavage; RNA array
Summary of the method: as §1

glucosamine-6-phosphate [4] = variants of: B1; assay: self-cleavage kobs at 160 uM GlcN6P; higher = faster cleavage; RNA array
Summary of the method: as §1

glucosamine-6-phosphate [5] = variants of: B1; assay: self-cleavage kobs at 2500 uM GlcN6P; higher = faster cleavage; RNA array
Summary of the method: as §1

Variant | self-cleavage kobs at 40 uM GlcN6P (glucosamine-6-phosphate [1]) [s⁻¹] | self-cleavage kobs at 640 uM GlcN6P (glucosamine-6-phosphate [2]) [s⁻¹] | self-cleavage kobs at 10000 uM GlcN6P (glucosamine-6-phosphate [3]) [s⁻¹] | self-cleavage kobs at 160 uM GlcN6P (glucosamine-6-phosphate [4]) [s⁻¹] | self-cleavage kobs at 2500 uM GlcN6P (glucosamine-6-phosphate [5]) [s⁻¹]
C8G G51U | < 1e-05 | < 1e-05 | < 1e-05 | – | –
A36G U65G | < 1e-05 | < 1e-05 | < 1e-05 | < 1e-05 | < 1e-05
U30A G51U U54A | < 1e-05 | – | < 1e-05 | – | –
G35A C68A | < 1e-05 | < 1e-05 | – | < 1e-05 | < 1e-05
C10U G29C G35A G44U C50A U55C A64U | < 1e-05 | – | < 1e-05 | – | –
G9A G13A C34G U49C C68U | < 1e-05 | – | – | – | –
G41C U45G | < 1e-05 | – | 9.46e-05 ± 1.7e-05 | – | –
G60C C67A | < 1e-05 | – | – | – | < 1e-05
G40C U49A | < 1e-05 | < 1e-05 | < 1e-05 | – | –
A15G G38C | < 1e-05 | < 1e-05 | – | < 1e-05 | < 1e-05
G41A U57C | < 1e-05 | < 1e-05 | – | < 1e-05 | –
G29C U54G G60A | < 1e-05 | – | < 1e-05 | – | –
C34G G40A U55G | < 1e-05 | – | – | – | –
A6U A33G | < 1e-05 | < 1e-05 | – | – | –
C10U G40U U49C C70A | < 1e-05 | – | < 1e-05 | – | –
A6G C58A C67G | 0.000658 ± 0.00021 | – | 0.000123 ± 3.5e-05 | – | –
A36G G63A | < 1e-05 | < 1e-05 | < 1e-05 | < 1e-05 | < 1e-05
C11A A42G U56A | < 1e-05 | – | 7.2e-05 ± 1.5e-05 | – | 2.82e-05 ± 1.3e-05
A12C G26U | 0.000614 ± 0.00014 | 0.00546 ± 0.0013 | 0.0113 ± 0.0032 | – | 0.00321 ± 0.00099
C10U G37A | < 1e-05 | – | < 1e-05 | < 1e-05 | –
A33G C61G | < 1e-05 | < 1e-05 | < 1e-05 | < 1e-05 | –
C8G C50G | 0.000322 ± 0.00014 | 0.00014 ± 3.4e-05 | 0.000242 ± 7.8e-05 | 0.000106 ± 2.1e-05 | 0.000123 ± 2.4e-05
G43C C58A | < 1e-05 | < 1e-05 | < 1e-05 | < 1e-05 | < 1e-05

Variant | self-cleavage kobs at 40 uM GlcN6P (glucosamine-6-phosphate [1]) [s⁻¹] | self-cleavage kobs at 640 uM GlcN6P (glucosamine-6-phosphate [2]) [s⁻¹] | self-cleavage kobs at 10000 uM GlcN6P (glucosamine-6-phosphate [3]) [s⁻¹] | self-cleavage kobs at 160 uM GlcN6P (glucosamine-6-phosphate [4]) [s⁻¹] | self-cleavage kobs at 2500 uM GlcN6P (glucosamine-6-phosphate [5]) [s⁻¹]
G32U C34U A42C | < 1e-05 | – | – | – | < 1e-05
A6G C8G C10G A52U G60A | < 1e-05 | – | – | – | –
C11A C50A C68G | 5.45e-05 ± 1.8e-05 | 0.000154 ± 5.6e-05 | 3.73e-05 ± 1.7e-05 | 0.000352 ± 0.0001 | 6.2e-05 ± 2.5e-05
A33G G51U | < 1e-05 | < 1e-05 | < 1e-05 | – | –
A33U A48G A53U U57C | < 1e-05 | – | < 1e-05 | – | –
A48U G51U U65G C71U | < 1e-05 | – | – | – | < 1e-05
G7A A48U U56G | < 1e-05 | < 1e-05 | < 1e-05 | < 1e-05 | –
C8G C50U | < 1e-05 | < 1e-05 | < 1e-05 | < 1e-05 | < 1e-05
A12G C58U C61U | < 1e-05 | – | – | – | –
G43U G44A A48G C58A U69A C71G | < 1e-05 | – | < 1e-05 | < 1e-05 | < 1e-05
G7U A33U A52G | < 1e-05 | – | – | – | –
C11A A15C C50G | 0.000118 ± 3.3e-05 | 0.000113 ± 3.6e-05 | 4.96e-05 ± 1.5e-05 | 0.000386 ± 0.00017 | 7.75e-05 ± 3.1e-05
A6G A36U C50U | < 1e-05 | < 1e-05 | < 1e-05 | – | –
G9U C11A G59A A64U | < 1e-05 | – | – | – | –
U46C G63U C70A | < 1e-05 | – | – | – | –
C10U G38U G41A | < 1e-05 | – | – | – | –
C16U U56A | 0.000484 ± 9.4e-05 | 0.00448 ± 0.0011 | 0.0273 ± 0.0079 | 0.000861 ± 0.00013 | 0.00493 ± 0.0012
G7U C11G | < 1e-05 | < 1e-05 | < 1e-05 | < 1e-05 | < 1e-05
C16U A39C | 0.000107 ± 1.4e-05 | – | 0.00545 ± 0.0006 | – | 0.00222 ± 0.00082
G26U C50G | 4.71e-05 ± 1.9e-05 | – | 3.96e-05 ± 1.3e-05 | – | –
C10U A33U A52U | < 1e-05 | < 1e-05 | < 1e-05 | – | –
G29A A33G C34G C67U | < 1e-05 | – | – | – | –
